Test results reported in the supplement of paper PMC10065799, “High-throughput profiling of sequence recognition by tyrosine kinases and SH2 domains using bacterial peptide display” (eLife, 2023).

Experiments:
Grb2 SH2 = Grb2 SH2 (UniProt P62993); assay: SH2 binding enrichment of the phosphorylated peptide, bacterial display (enrichment ratio); higher = better substrate or ligand; peptides without Tyr show the background
SHP2-C SH2 = assay: as above
c-Src SH2 = assay: as above
Fer (mouse) = assay: phosphorylation enrichment, bacterial display (enrichment ratio); higher = better substrate or ligand; peptides without Tyr show the background
EPHB1 = EPHB1 (UniProt P54762); assay: as above
Hck = Hck (UniProt P08631); assay: as above
Jak2 = Jak2 (UniProt O60674); assay: as above
Jak2, sequence (O60674 whole entry, looked up): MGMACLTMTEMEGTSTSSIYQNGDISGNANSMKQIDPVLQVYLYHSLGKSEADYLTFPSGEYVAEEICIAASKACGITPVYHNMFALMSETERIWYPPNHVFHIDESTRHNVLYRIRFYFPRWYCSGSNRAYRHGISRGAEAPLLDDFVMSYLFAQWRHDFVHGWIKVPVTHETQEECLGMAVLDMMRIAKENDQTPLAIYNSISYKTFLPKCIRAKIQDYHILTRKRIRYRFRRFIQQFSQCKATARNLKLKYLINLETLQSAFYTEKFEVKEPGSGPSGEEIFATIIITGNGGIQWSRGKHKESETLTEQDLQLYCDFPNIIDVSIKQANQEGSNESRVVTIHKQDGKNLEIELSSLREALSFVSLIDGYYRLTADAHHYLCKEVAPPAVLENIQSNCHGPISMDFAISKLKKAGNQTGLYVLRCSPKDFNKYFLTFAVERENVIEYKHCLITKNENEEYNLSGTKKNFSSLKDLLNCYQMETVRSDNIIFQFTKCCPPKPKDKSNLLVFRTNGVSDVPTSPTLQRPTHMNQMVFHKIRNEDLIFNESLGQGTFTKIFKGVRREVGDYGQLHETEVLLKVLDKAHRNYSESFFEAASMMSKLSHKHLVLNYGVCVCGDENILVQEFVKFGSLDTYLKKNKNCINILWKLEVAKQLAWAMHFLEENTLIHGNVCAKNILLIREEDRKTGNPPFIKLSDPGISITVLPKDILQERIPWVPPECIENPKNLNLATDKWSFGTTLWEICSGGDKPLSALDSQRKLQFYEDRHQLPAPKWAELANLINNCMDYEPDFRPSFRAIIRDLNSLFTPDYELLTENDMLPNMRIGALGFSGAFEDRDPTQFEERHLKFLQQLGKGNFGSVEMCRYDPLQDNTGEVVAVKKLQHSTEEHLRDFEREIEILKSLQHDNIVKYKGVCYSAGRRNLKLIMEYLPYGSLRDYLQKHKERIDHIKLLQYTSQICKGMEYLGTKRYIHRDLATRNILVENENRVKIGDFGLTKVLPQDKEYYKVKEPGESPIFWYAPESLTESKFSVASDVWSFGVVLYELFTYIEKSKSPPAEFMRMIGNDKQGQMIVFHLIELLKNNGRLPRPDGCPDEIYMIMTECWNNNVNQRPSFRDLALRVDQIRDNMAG

c-Abl (mouse) = assay: as above
FGFR1 = FGFR1 (UniProt P11362); assay: as above
FGFR1, sequence (P11362 whole entry, looked up): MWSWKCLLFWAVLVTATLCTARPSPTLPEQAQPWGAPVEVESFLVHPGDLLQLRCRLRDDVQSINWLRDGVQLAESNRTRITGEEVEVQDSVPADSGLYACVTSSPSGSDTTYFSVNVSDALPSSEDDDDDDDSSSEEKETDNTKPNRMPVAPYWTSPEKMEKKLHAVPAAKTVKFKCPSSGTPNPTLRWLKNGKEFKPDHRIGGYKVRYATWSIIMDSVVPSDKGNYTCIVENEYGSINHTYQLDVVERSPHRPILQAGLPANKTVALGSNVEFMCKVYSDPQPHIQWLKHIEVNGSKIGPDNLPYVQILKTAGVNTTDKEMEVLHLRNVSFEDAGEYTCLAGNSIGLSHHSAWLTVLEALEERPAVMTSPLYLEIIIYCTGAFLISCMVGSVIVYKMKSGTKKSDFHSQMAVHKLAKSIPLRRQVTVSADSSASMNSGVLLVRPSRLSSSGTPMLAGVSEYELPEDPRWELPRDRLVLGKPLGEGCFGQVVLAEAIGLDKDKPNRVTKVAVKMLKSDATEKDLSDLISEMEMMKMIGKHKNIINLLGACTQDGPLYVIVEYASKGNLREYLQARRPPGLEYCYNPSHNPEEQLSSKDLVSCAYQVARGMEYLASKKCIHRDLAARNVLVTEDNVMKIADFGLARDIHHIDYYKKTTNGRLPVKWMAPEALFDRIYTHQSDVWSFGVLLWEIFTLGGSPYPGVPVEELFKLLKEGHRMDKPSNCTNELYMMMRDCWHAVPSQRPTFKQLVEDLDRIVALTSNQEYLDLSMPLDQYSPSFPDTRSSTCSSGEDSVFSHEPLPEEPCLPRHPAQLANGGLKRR

Fes = Fes (UniProt P07332); assay: as above
FGFR3 = FGFR3 (UniProt P22607); assay: as above
FGFR3, sequence (P22607 whole entry, looked up): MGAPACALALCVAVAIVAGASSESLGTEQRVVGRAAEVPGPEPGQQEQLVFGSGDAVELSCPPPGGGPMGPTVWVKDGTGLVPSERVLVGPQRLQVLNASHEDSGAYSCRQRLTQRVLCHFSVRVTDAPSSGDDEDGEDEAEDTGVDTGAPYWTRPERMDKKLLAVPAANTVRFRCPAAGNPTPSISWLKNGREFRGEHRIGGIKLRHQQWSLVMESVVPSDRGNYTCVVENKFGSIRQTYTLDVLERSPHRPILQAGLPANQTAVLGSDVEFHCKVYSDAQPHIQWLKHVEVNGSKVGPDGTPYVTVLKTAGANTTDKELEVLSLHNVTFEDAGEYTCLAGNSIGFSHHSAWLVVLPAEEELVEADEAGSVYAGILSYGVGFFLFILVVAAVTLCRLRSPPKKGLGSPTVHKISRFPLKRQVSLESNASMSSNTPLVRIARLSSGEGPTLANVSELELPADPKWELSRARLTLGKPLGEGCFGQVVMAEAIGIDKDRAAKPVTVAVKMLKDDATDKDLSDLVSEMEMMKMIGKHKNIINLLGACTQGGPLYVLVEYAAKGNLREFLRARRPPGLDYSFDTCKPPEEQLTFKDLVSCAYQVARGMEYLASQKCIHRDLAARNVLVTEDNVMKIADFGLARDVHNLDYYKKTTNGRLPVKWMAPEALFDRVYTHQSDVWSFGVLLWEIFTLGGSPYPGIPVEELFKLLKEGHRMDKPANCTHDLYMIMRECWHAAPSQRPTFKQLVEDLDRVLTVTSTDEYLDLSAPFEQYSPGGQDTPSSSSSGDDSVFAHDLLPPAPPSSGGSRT

AncSZ = assay: as above
c-Src = assay: as above
Fyn = Fyn (UniProt P06241); assay: as above
EPHB2 = EPHB2 (UniProt P29323); assay: as above
EPHB2, sequence (P29323 whole entry, looked up): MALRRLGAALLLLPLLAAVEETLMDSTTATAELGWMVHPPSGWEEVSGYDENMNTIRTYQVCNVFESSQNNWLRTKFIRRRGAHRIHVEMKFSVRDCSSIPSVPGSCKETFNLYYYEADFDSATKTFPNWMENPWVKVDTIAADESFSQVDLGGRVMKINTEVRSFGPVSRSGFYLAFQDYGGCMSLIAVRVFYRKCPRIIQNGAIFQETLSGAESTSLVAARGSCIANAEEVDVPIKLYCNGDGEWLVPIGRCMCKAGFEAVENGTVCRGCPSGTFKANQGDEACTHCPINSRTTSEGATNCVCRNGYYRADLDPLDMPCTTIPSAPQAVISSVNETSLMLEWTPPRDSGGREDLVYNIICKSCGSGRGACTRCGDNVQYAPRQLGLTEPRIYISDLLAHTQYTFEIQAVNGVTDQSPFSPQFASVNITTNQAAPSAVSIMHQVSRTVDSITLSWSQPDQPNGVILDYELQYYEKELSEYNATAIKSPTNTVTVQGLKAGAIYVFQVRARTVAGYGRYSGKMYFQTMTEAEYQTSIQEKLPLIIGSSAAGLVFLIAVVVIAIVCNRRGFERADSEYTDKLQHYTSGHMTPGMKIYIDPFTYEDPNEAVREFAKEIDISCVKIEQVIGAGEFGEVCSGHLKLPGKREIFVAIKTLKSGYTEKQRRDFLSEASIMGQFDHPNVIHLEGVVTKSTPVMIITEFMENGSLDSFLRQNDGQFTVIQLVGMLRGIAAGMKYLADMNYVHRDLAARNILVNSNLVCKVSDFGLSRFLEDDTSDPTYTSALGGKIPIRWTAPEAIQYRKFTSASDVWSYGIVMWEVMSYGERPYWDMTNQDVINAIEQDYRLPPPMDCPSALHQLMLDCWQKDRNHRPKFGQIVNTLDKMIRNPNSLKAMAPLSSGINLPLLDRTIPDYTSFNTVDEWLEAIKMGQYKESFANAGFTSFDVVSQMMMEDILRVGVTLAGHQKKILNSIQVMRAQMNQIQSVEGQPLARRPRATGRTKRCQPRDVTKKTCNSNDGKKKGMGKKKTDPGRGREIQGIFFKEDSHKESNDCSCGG

MERTK = MERTK (UniProt Q12866); assay: as above
MERTK, sequence (Q12866 whole entry, looked up, the tested form may be a part): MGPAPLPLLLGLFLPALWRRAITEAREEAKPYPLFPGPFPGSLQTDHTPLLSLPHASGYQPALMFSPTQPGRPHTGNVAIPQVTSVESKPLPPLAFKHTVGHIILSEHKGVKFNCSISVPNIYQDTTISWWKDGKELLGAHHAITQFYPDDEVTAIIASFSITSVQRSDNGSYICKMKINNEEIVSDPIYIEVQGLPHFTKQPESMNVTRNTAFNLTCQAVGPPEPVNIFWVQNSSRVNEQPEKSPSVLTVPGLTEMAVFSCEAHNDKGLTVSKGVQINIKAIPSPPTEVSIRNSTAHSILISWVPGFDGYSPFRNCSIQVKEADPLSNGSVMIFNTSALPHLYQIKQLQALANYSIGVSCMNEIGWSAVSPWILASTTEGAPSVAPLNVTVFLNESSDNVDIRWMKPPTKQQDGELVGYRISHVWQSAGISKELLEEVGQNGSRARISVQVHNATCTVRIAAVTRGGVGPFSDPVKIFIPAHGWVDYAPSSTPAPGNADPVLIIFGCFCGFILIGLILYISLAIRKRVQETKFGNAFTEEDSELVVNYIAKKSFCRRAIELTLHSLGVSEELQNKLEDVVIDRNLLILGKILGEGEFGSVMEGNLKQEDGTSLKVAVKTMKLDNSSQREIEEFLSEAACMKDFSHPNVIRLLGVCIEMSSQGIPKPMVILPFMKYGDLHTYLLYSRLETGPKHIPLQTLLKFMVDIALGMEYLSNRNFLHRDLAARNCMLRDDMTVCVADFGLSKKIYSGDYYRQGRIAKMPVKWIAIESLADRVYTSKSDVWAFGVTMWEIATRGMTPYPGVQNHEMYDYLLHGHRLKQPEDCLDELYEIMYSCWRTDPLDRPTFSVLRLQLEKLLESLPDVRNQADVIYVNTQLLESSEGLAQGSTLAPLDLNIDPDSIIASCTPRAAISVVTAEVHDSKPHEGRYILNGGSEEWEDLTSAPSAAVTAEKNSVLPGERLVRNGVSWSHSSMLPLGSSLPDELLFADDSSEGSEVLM
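Throughout, for SH2 binding enrichment of the phosphorylated peptide, bacterial display: peptide library displayed on the E. coli surface as eCPX fusions, selected cells deep-sequenced, score is each peptide's frequency after selection divided by its frequency in the input.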
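Throughout, for phosphorylation enrichment, bacterial display: 11-residue human phosphosite peptides and single-mutation variants displayed on the E. coli surface, counted by deep sequencing, each peptide's frequency after selection divided by its frequency in the unselected input library; frequency after pTyr selection over input frequency; kinase dosed for 20-30% of maximal phosphorylation in three min.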

| Sequence | SH2 binding enrichment (Grb2 SH2) | SH2 binding enrichment (SHP2-C SH2) | SH2 binding enrichment (c-Src SH2) | phosphorylation enrichment (Fer (mouse)) | phosphorylation enrichment (EPHB1) | phosphorylation enrichment (Hck) | phosphorylation enrichment (Jak2) | phosphorylation enrichment (c-Abl (mouse)) | phosphorylation enrichment (FGFR1) | phosphorylation enrichment (Fes) | phosphorylation enrichment (FGFR3) | phosphorylation enrichment (AncSZ) | phosphorylation enrichment (c-Src) | phosphorylation enrichment (Fyn) | phosphorylation enrichment (EPHB2) | phosphorylation enrichment (MERTK) |
| --- | --- | --- | --- | --- | --- | --- | --- | --- | --- | --- | --- | --- | --- | --- | --- | --- |
| EACRSYSHVVL [CHST6_Y168] | 0.958 | 2.2 | 2.24 | 0.824 | 0.454 | 0.548 | 0.602 | 0.881 | 0.533 | 0.711 | 0.701 | 0.808 | 0.538 | 0.611 | 0.498 | 0.463 |
| KDQGGYTMHQD [MAPT_Y29] | 0.722 | 0.349 | 0.451 | 0.399 | 0.4 | 0.484 | 0.542 | 0.569 | 0.512 | 0.793 | 0.465 | 0.754 | 0.385 | 0.404 | 0.456 | 0.413 |
| GIVKAYFVHAR [AIPL1_Y267_R270H_YF] | 1.3 | 1.71 | 1.01 | 0.481 | 0.422 | 0.461 | 0.73 | 0.602 | 0.388 | 0.872 | 0.605 | 0.795 | 0.428 | 0.449 | 0.494 | 0.448 |
| RGLQVYHKRNA [LRP2_Y2010_R2012K] | 0.943 | 0.539 | 0.567 | 0.517 | 0.45 | 0.59 | 0.654 | 0.561 | 0.433 | 0.985 | 0.642 | 0.545 | 0.497 | 0.496 | 0.468 | 0.496 |
| PRDSGYSYETI [MAP1B_Y1921_S1917R] | 0.774 | 0.564 | 12.7 | 0.777 | 0.448 | 0.405 | 0.781 | 0.542 | 0.679 | 1.29 | 0.898 | 0.917 | 0.467 | 0.354 | 0.745 | 0.55 |
| KNDSNYVVKGN [KIT_Y823] | 0.814 | 0.659 | 0.546 | 0.323 | 0.303 | 0.406 | 0.482 | 0.568 | 0.55 | 0.635 | 0.447 | 0.539 | 0.346 | 0.37 | 0.318 | 0.382 |
| FQKDVYNIPPS [NEDD9_Y177_D178N_YF] | 1 | 0.913 | 0.479 | 0.371 | 0.437 | 1.31 | 1.75 | 0.525 | 0.47 | 0.572 | 0.468 | 0.613 | 2.21 | 2.54 | 0.411 | 0.883 |
| QSSALYEDHYL [ASS1_Y83_R86H] | 0.881 | 0.54 | 0.524 | 18.5 | 5.41 | 1.58 | 1.18 | 0.734 | 0.477 | 1.18 | 0.702 | 1.24 | 1.14 | 0.904 | 2.07 | 1.33 |
| GTHCHYKAPTV [FZD9_Y569] | 1.25 | 0.913 | 1.3 | 0.505 | 0.421 | 0.429 | 0.667 | 3.71 | 0.493 | 0.79 | 0.51 | 0.648 | 0.485 | 0.442 | 0.39 | 0.442 |

Second part, led by results:

| SH2 binding enrichment (Grb2 SH2) | SH2 binding enrichment (SHP2-C SH2) | SH2 binding enrichment (c-Src SH2) | Sequence | phosphorylation enrichment (Fer (mouse)) | phosphorylation enrichment (EPHB1) | phosphorylation enrichment (Hck) | phosphorylation enrichment (Jak2) | phosphorylation enrichment (c-Abl (mouse)) | phosphorylation enrichment (FGFR1) | phosphorylation enrichment (Fes) | phosphorylation enrichment (FGFR3) | phosphorylation enrichment (AncSZ) | phosphorylation enrichment (c-Src) | phosphorylation enrichment (Fyn) | phosphorylation enrichment (EPHB2) | phosphorylation enrichment (MERTK) |
| --- | --- | --- | --- | --- | --- | --- | --- | --- | --- | --- | --- | --- | --- | --- | --- | --- |
| 0.705 | 0.695 | 0.578 | LYVDVYGPSVP [NUBPL_Y109_D105Y] | 2.21 | 3.63 | 2.85 | 0.977 | 0.902 | 2.8 | 1.32 | 2.02 | 1.48 | 2.15 | 2.02 | 1.09 | 2.27 |
| 0.707 | 0.595 | 0.493 | DSILVYQGKEQ [USH2A_Y1909] | 0.414 | 0.451 | 0.621 | 0.734 | 0.536 | 0.434 | 0.761 | 0.533 | 0.717 | 0.515 | 0.433 | 0.43 | 0.333 |
| 0.668 | 0.471 | 0.51 | FDDIACIRKTL [PIK3CA_Y1021_Y1021C] | 0.424 | 0.603 | 0.448 | 0.787 | 0.661 | 0.497 | 1.03 | 0.756 | 0.911 | 0.378 | 0.374 | 0.629 | 0.386 |
| 0.725 | 0.644 | 0.379 | GEEIKYTLWLS [OTC_Y55_M56T] | 0.712 | 0.704 | 0.529 | 1.21 | 0.873 | 0.538 | 1.4 | 0.882 | 1.35 | 0.443 | 0.418 | 0.605 | 0.512 |
| 0.977 | 0.797 | 0.591 | SVEVPYEPPEV [TP53_Y220_V217E] | 0.572 | 0.579 | 0.596 | 1.41 | 1.08 | 0.622 | 1.4 | 0.907 | 1.44 | 0.549 | 0.603 | 0.675 | 0.564 |
| 0.893 | 0.785 | 0.399 | EREFKYGAHNF [OAT_Y50_YF] | 0.36 | 0.392 | 0.386 | 0.483 | 0.401 | 0.368 | 0.608 | 0.482 | 0.516 | 0.388 | 0.442 | 0.375 | 0.359 |
| 1.11 | 0.682 | 0.426 | DSKIRYLSADS [TTF1_Y476_E473K] | 0.368 | 0.465 | 0.434 | 0.611 | 0.508 | 0.457 | 0.663 | 0.546 | 0.503 | 0.527 | 0.389 | 0.607 | 0.435 |
